Data on five molecules can be found in patent publication US20130156764A1, “NEUTRALIZATION OF FLT3 LIGAND AS A LEUKEMIA THERAPY” (The Johns Hopkins University, priority 2010, published 2013).

Assay [1] has as its system FLT3 autophosphorylation in Molm14 cells (FLT3/ITD). Briefly: Inhibition of FLT3 autophosphorylation in Molm14 cells in presence of FL (immunoblot). In kind it is cell-based. The conditions noted are these: for effect of FL on dose response curve for inhibition of FLT3 autophosphorylation: exogenous FL, in medium and plasma; for effect of addition of FL on inhibition at the highest doses used: medium and plasma. Here is the method:
(§1) Leukemia cells were washed in PBS, then lysed by re-suspending them in lysis buffer (20 mM Tris pH 7.4, 100 mM NaCl, 1% Igepal (Sigma, St. Louis, Mo.), 1 mM EDTA, 2 mM NaV04, plus Complete protease inhibitor (Roche)) for 30 minutes while rocking. The extract was clarified by centrifugation at 14,000 rpm and the supernatant was assayed for protein (Bio-Rad, Richmond, Calif.). A 50 μg aliquot was removed as whole-cell lysate for analysis of STAT5, and the remainder was used for immunoprecipitation with anti-FLT3 antibody. Anti-FLT3 antibody (SI8; Santa Cruz Biotechnology, Santa Cruz, Calif.) was added to the extract for overnight incubation, then protein A sepharose (Upstate Biotechnology, Lake Placid, N.Y.) was added for 2 additional hours. Separate SDS-PAGE (sodium dodecylsulfate polyacrylamide electrophoresis) gels for whole-cell lysate and immunoprecipitates were run in parallel, After transfer to Immobilon membranes (Millipore, Bedford, Mass.), immunoblotting was performed with antiphosphotyrosine antibody (4G10; Upstate Biotechnology, Lake Placid, N.Y.) to detect phosphorylated FLT3, and then stripped and re-probed with anti-FLT3 antibody to measure total FLT3. Proteins were visualized using chemiluminescence (ECL; GE Healthcare, Piscataway, N.J.), exposed on Kodak BioMax XAR Film, developed, and scanned using a BioRad GS800 densitometer.
On the technique in general: A western blot detects proteins with antibodies after separation by electrophoresis.

Assay [2] relates to FLT3. Briefly: Plasma inhibitory activity (PIA) assay for FLT3 with patient plasma on TF/ITD cells. In kind it is cell-based, human. The conditions noted are these: for mean PIA value: AML15 trial. How it is done: as §1
Frozen plasma samples were thawed and clarified by centrifugation at 14,000 rpm for 2 minutes. All assays described herein were performed within 12 months of collection. For each time point, 2×10^6 TF/ITD were incubated with 1 ml plasma at 37° C. for 1 hour. The cells were washed twice with ice-cold PBS then lysed. After immunoblotting for phosphorylated FLT3 as described above, densitometric analysis was performed on the bands and the PIA for a given plasma sample was calculated by expressing the density of its corresponding band as a percentage of the density of the baseline band (which was arbitrarily set at 100%).

Assay [3] relates to FLT3. To be noted: previous monotherapy trials; cited from earlier work.
Assay [4] addresses T1, wild-type FLT3 (full-length, expressed in FL-/- MEF cells) (human) (UniProt P36888).
T1 sequence: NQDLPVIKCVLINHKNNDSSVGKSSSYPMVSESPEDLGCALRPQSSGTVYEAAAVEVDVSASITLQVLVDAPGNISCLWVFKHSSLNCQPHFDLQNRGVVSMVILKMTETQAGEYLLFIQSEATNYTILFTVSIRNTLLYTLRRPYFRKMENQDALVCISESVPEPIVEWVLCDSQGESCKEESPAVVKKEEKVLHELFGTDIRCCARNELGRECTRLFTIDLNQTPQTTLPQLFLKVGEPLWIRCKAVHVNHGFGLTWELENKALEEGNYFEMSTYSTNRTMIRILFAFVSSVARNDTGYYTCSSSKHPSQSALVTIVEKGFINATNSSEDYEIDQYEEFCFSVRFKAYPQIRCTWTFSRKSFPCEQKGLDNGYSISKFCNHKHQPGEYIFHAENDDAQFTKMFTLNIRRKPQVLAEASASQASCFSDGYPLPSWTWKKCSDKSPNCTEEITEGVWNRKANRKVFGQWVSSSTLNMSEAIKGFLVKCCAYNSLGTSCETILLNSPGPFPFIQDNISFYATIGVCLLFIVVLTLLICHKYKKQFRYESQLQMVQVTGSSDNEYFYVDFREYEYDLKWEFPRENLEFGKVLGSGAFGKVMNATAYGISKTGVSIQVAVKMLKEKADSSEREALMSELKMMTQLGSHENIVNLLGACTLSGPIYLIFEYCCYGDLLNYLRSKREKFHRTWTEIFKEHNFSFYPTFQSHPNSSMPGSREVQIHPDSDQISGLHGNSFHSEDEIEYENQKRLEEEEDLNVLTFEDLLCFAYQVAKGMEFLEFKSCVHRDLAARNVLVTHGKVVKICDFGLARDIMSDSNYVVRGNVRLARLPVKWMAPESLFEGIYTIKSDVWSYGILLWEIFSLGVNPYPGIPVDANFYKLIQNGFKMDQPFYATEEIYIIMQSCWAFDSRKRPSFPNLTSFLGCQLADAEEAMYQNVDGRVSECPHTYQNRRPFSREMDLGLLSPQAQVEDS
Briefly: cell-based or functional assay.

In assay [5] the target is T2, FLT3/TKD mutant (D835, Aspartic acid to Tyrosine change, in full-length FLT3) (human) (UniProt P36888).
T2 sequence: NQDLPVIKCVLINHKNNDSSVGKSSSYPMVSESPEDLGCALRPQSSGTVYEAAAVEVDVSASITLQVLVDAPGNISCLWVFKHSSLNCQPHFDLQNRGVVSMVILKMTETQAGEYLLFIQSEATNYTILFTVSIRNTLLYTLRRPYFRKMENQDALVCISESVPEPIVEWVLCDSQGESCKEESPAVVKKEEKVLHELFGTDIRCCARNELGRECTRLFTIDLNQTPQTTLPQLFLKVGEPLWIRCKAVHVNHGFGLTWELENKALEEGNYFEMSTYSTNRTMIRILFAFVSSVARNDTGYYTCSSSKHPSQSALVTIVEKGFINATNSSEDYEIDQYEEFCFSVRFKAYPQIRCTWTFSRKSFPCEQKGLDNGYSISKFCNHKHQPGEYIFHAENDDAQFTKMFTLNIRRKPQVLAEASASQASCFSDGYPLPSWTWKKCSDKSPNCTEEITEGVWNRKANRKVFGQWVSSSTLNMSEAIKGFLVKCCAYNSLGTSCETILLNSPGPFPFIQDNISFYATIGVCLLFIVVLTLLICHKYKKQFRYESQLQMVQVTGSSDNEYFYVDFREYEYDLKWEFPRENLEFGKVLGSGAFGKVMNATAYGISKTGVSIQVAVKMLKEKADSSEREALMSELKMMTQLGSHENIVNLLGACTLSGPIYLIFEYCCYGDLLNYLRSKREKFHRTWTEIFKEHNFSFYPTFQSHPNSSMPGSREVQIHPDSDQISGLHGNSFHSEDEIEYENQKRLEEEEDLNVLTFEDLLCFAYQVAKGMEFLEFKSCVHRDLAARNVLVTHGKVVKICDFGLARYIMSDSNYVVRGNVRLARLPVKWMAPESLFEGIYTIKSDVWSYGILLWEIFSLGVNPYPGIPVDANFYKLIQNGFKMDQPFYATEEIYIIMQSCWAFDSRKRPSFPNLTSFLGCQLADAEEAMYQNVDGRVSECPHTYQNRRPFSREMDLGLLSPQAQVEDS
Briefly: cell-based or functional assay.

Assay [6] addresses T3, FLT3/ITD mutant (addition of 6 amino acids, RTDFRE, after amino acid No. 596 of full-length FLT3) (human) (UniProt P36888).
T3 sequence: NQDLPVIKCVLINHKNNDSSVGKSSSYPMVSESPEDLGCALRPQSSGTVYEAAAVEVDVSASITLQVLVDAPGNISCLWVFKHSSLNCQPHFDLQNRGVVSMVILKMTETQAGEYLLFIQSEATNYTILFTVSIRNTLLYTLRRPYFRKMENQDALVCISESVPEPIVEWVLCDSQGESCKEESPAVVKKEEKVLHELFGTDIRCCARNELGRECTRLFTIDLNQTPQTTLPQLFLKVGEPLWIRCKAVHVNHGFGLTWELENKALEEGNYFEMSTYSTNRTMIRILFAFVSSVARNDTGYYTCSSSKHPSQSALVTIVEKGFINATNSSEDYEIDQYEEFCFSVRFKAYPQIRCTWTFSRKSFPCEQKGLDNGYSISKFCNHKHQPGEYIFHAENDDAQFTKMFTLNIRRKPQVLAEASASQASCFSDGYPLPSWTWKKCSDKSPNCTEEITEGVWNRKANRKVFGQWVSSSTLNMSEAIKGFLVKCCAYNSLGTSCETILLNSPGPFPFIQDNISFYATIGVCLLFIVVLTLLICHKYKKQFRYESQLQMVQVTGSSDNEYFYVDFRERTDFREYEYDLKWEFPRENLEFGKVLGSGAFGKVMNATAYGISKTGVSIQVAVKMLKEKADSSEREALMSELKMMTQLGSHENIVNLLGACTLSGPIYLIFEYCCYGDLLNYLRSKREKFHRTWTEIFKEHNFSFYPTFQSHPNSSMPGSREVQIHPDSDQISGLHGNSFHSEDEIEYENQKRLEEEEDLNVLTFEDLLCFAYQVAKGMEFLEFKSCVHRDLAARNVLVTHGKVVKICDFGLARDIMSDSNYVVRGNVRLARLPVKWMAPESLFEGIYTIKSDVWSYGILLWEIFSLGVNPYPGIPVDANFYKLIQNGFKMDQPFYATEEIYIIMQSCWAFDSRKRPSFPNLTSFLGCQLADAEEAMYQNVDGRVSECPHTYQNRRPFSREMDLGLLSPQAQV
Briefly: cell-based or functional assay.

On to `O=C(c1ccc(/C=C/c2n[nH]c3ccccc23)cc1)N1CCNCC1` [KW-2449], for which, in assay [1], the “effect of FL on dose response curve for inhibition of FLT3 autophosphorylation” value is “upward shift in the dose response curves” and the “effect of addition of FL on inhibition at the highest doses used” value was “loss of complete inhibition”.

For the molecule `C[C@]12O[C@H](C[C@]1(O)CO)n1c3ccccc3c3c4c(c5c6ccccc6n2c5c31)CNC4=O` [lestaurtinib, Lestaurtinib], in assay [2] (AML15 trial (newly diagnosed AML), Day 15 trough), the “samples below 15% of baseline FLT3 activity” value is given as “all 18”. Besides, the “mean PIA value” in assay [2] (course 1, 18 samples) is 3 % of baseline; in assay [2] (courses 2 through 4, 18 samples), 6.8%. In assay [2] (Cephalon 204 trial (relapsed AML), Day 15 trough, 78 samples), the “samples achieving target level of inhibition (FLT3 below 15% of baseline)” value is listed as 62%. In assay [1] (10 μM in plasma, 3 ng/mL FL), the “FLT3 autophosphorylation remaining with FL” value is reported as “significant residual FLT3 autophosphorylation”. Also, the “effect of FL on dose response curve for inhibition of FLT3 autophosphorylation” value in assay [1] was “upward shift in the dose response curve”. Also, in assay [3], the “trough levels in vivo sufficient to induce FLT3 inhibition to 15% of baseline” value is 5 µM.

Turning to `CNC(=O)c1cc(Oc2ccc(NC(=O)Nc3ccc(Cl)c(C(F)(F)F)c3)cc2)ccn1` [sorafenib, Sorafenib], in assay [1], the “effect of FL on dose response curve for inhibition of FLT3 autophosphorylation” value is listed as “upward shift in the dose response curves” and the “effect of addition of FL on inhibition at the highest doses used” value is on record as “loss of complete inhibition”.

B1: secreted form of FL expressed from a lentiviral vector (coding sequence from pUMVC3-hFLex plasmid) (ligand)
chain: TQDCSFQHSPISSDFAVKIRELSDYLLQDYPVTVASNLQDEELCGGLWRLVLAQRWMERLKTVAGSKMQGLLERVNTEIHFVTKCAFQPPPSCLRFVQTNISRLLQETSEQLVALKPWITRQNFSRCLELQCQPDSSTLPPPWSPRPLEATAPTAP
In the case of B1, in assay [4], the FLT3 phosphorylation in FL-/- MEF-FLT3 cells stably expressing FL, no exogenous FL is above 3 fold. Moreover, the FLT3 phosphorylation in FL-/- MEF-TKD cells stably expressing FL, no exogenous FL in assay [5] is above 3 fold. In assay [6], this molecule had an FLT3 phosphorylation in FL-/- MEF-ITD cells stably expressing FL, no exogenous FL above 3 fold.

B2: Recombinant human FL (FLT3 ligand), PeproTech (ligand)
chain: TQDCSFQHSPISSDFAVKIRELSDYLLQDYPVTVASNLQDEELCGGLWRLVLAQRWMERLKTVAGSKMQGLLERVNTEIHFVTKCAFQPPPSCLRFVQTNISRLLQETSEQLVALKPWITRQNFSRCLELQCQPDSSTLPPPWSPRPLEATAPTA
Regarding B2, the FLT3 phosphorylation (anti-FLT3 IP, 4G10 immunoblot, densitometry) in FL-/- MEF-FLT3 cells, FL 100 ng/mL 15 min in assay [4] was above 4 fold. In assay [5], this molecule had an AKT phosphorylation in BaF3/TKD cells after FL stimulation of 2.2 fold; an FLT3 phosphorylation (anti-FLT3 IP, 4G10 immunoblot, densitometry) in FL-/- MEF-TKD cells, FL 100 ng/mL 15 min above 4 fold; an FLT3 phosphorylation in TF1/TKD cells, exogenous FL 15 min above 2 fold; an STAT5 phosphorylation in TF1/TKD cells after FL stimulation of 1.8 fold. For the same molecule, in assay [5], the apoptotic population (Annexin V/7AAD, FACS) of TF1/TKD cells, 48 h serum-free, with FL is 31.6% and the apoptotic population (Annexin V/7AAD, FACS) of TF1/TKD cells, 48 h serum-free, without FL is 40.2%. In assay [6], the AKT phosphorylation in BaF3/ITD cells after FL stimulation worked out at 1.3 fold; the FLT3 phosphorylation (anti-FLT3 IP, 4G10 immunoblot, densitometry) in FL-/- MEF-ITD cells, FL 100 ng/mL 15 min is above 4 fold; the FLT3 phosphorylation in TF1/ITD cells, exogenous FL 15 min was above 2 fold; the STAT5 phosphorylation in TF1/ITD cells after FL stimulation is 1.8 fold. In assay [6], this molecule showed an apoptotic population (Annexin V/7AAD, FACS) of TF1/ITD cells, 48 h serum-free, with FL of 49.5% and an apoptotic population (Annexin V/7AAD, FACS) of TF1/ITD cells, 48 h serum-free, without FL of 61.3%.
